We go through one molecule from patent publication US6713057B1, “Compositions and methods for modulating serum cholesterol” (The Johns Hopkins University, priority 1999, dated 2004).

In the experiment the test system is SREBP-1. As to the kind of experiment: SREBP-1 proteolysis (maturation) assay, Western immunoblot of nuclear fractions, HH-25 hepatocytes. It counts as cell-based, human. Conditions: HH-25 hepatocytes, sterol independent. As for the experimental part:
FIGS. 2A-2C illustrate effects of TNF-α sphingomyelinase and C2-ceramide on the kinetics of SREBP-1 maturation—FIGS. 2A-2C is explained in more detail as follows: Cells were maintained in media supplemented with 1 μg/ml 25-hydroxy cholesterol and 15 μg/ml cholesterol for 24 hours before the experiment. The cells were treated for the indicated time as described in materials and methods. The cells were then harvested in PBS, pelleted and frozen. Lysis and nuclear fractionation were performed as described. Nuclear fractions (50 μg of protein) were electrophoresed on a 7.5% polyacrylamide gel and transferred to a PVDF membrane. Western blotting was performed as described. Band intensity was quantified via densitometry. Error bars represent ±one standard deviation from the mean. 2A) The kinetics of SREBP maturation as measured by the increase in mature SREBP-1 are plotted. Fold increase was calculated by comparing each time point to the corresponding control value (TNF-α is represented by stippled bars, bacterial sphingomyelinase is represented by light gray bars and C2-ceramide by the dark bars.) 2B) Cells were treated with TNF-α (10 ng/ml) and prepared as described above. The bands corresponding to the precursor and mature forms of SREBP-1 were quantified and their ratio plotted. 2C) Representative Western blots from which numerical data was derived. […]
(A western blot detects proteins with antibodies after separation by electrophoresis.)

B1: EGF: human recombinant EGF from Upstate Biotechnology (protein, UniProt P01133 23-1207, looked up)
Pro-epidermal growth factor: PQHWSCPEGTLAGNGNSTCVGPAPFLIFSHGNSIFRIDTEGTNYEQLVVDAGVSVIMDFHYNEKRIYWVDLERQLLQRVFLNGSRQERVCNIEKNVSGMAINWINEEVIWSNQQEGIITVTDMKGNNSHILLSALKYPANVAVDPVERFIFWSSEVAGSLYRADLDGVGVKALLETSEKITAVSLDVLDKRLFWIQYNREGSNSLICSCDYDGGSVHISKHPTQHNLFAMSLFGDRIFYSTWKMKTIWIANKHTGKDMVRINLHSSFVPLGELKVVHPLAQPKAEDDTWEPEQKLCKLRKGNCSSTVCGQDLQSHLCMCAEGYALSRDRKYCEDVNECAFWNHGCTLGCKNTPGSYYCTCPVGFVLLPDGKRCHQLVSCPRNVSECSHDCVLTSEGPLCFCPEGSVLERDGKTCSGCSSPDNGGCSQLCVPLSPVSWECDCFPGYDLQLDEKSCAASGPQPFLLFANSQDIRHMHFDGTDYGTLLSQQMGMVYALDHDPVENKIYFAHTALKWIERANMDGSQRERLIEEGVDVPEGLAVDWIGRRFYWTDRGKSLIGRSDLNGKRSKIITKENISQPRGIAVHPMAKRLFWTDTGINPRIESSSLQGLGRLVIASSDLIWPSGITIDFLTDKLYWCDAKQSVIEMANLDGSKRRRLTQNDVGHPFAVAVFEDYVWFSDWAMPSVMRVNKRTGKDRVRLQGSMLKPSSLVVVHPLAKPGADPCLYQNGGCEHICKKRLGTAWCSCREGFMKASDGKTCLALDGHQLLAGGEVDLKNQVTPLDILSKTRVSEDNITESQHMLVAEIMVSDQDDCAPVGCSMYARCISEGEDATCQCLKGFAGDGKLCSDIDECEMGVPVCPPASSKCINTEGGYVCRCSEGYQGDGIHCLDIDECQLGEHSCGENASCTNTEGGYTCMCAGRLSEPGLICPDSTPPPHLREDDHHYSVRNSDSECPLSHDGYCLHDGVCMYIEALDKYACNCVVGYIGERCQYRDLKWWELRHAGHGQQQKVIVVAVCVVVLVMLLLLSLWGAHYYRTQKLLSKNPKNPYEESSRDVRSRRPADTEDGMSSCPQPWFVVIKEHQDLKNGGQPVAGEDGQAADGSMQPTSWRQEPQLCGMGTEQGCWIPVSSDKGSCPQVMERSFHMPSYGTQTLEGGVEKPHSLLSANPLWQQRALDPPHQMELTQ
modifications: Pro-epidermal growth factor
notes: human recombinant EGF from Upstate Biotechnology
Take B1: the “induction of SREBP-1 maturation (increase in mature SREBP-1), in words” value is “could not be recapitulated”.
